Data as given in the supplement of paper PMC10567573.

B1: FAM50A (parent)
chain: KALEILRKDFSELRSAGVEQLMYI
B2: C6orf223 (parent)
chain: TLARMSRRTRGPVERAAAAAAAAA
B3: ZNF511 (parent)
chain: FDALDDYEHHYHTLHGNVCSFCKR

Variants of: B1
Assay: protein stability index of a GFP-peptide fusion (GPS, HEK-293T) (PSI 1-6); higher = more stable
Conditions: c terminus: a fixed tail appended
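Further: lentivirally expressed fusions sorted by FACS into six bins by GFP to DsRed ratio, PSI derived from sequencing read proportions per bin multiplied by bin number.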

Protein stability index: each site, then its substitutions
L3: R 2.52; T 1.84
E4: D 1.62; F 3.86; I 2.76; K 2.34; P 2.74; V 2.21
I5: C 2.39; D 1.55; F 1.5; H 3.56; K 1.69; M 3.79; P 1.78; T 2.4; W 2.75; Y 2.52
L6: A 1.41; D 2; E 2.13; F 2.24; G 1.57; H 1.55; K 1.09; N 1.74; P 2.03; Q 2.51; R 1.89; S 2.27; T 1.85; V 2.36
R7: A 1.25; E 1.54; F 3.25; H 2.58; I 2.18; L 3.87; P 2.28; S 2.59; T 2.91
K8: D 2.16; F 3.19; G 3.52; I 2.27; L 4.84; N 3.03; R 4.36; W 3.31
D9: A 2.4; C 2.89; E 3.81; F 2.6; L 1.57; M 2.56; Q 1.2; S 3.85; V 2.25
F10: A 1.74; H 3.24; M 2.52; N 2.32; V 3.72
S11: D 1.6; E 2.51; H 2.97; I 3.09; R 2.76; Y 1.21
E12: A 2.97; L 2.09; N 3.69; Q 3.76; R 4; S 3.99; T 3.5; V 2.75
L13: A 3.08; H 5.15; I 2; K 1.53
R14: C 4.11; E 1.68; F 3.71; K 1.51; L 4.57; N 1.95; S 2.28; W 2.68; Y 1.69
S15: A 3.13; D 1.14; F 2.51; H 4.69; R 2.64
A16: E 3.17; I 2.76; V 2.07
G17: A 4.16; D 1.95; H 1.88; Y 2.95
V18: E 2.9; F 4.7; G 2.52; I 3.33; K 2.61; L 3.85; N 2.35; S 1.28; Y 2.02
E19: F 2.9; G 1.76; H 3.15; I 2.66; L 2.18; N 2; P 4.03; Q 2.95; W 1.95
Q20: D 3.81; K 4.59; L 2.75; M 1.54; P 3.58; V 3.63; Y 2.58
L21: A 1.78; D 2.23; G 3; N 2.82; P 3.17; R 3.83; Y 3.12
M22: C 2.56; D 2.22; E 1.27; F 2.34; I 1.97; P 2.46; Q 2.37; T 2.22; W 2.3
Y23: D 1.45; E 2.41; K 2.67; N 1.03
I24: C 1.98; E 1.01; K 1.94; N 1.21; Q 1.73; S 1.54

Variants of: B2
Assay: as above
Conditions: c terminus: a fixed tail appended

Protein stability index, by site and new letter:
L2: E 4.7
R4: I 1.94
P12: W 2.27
R15: W 2.01
A16: S 3.8
A17: F 1.63; R 3.5; T 3.76; Y 4.15
A18: I 3.43; L 2.92; M 1.56; N 3.25; P 4.09; Q 2.4; S 2.48; T 3.57; W 2.45; Y 2.13
A19: K 3.43
A21: M 1.95; V 2.18; W 2.83
A22: C 3.33; F 2.37; I 2.23; K 1.97; L 2.4; N 3.38; T 3.2; W 2.68; Y 2.66
A23: C 3.99; I 3.49; L 3.09; T 4.46; W 2.18; Y 3.26
A24: F 2.35; H 4.49; P 2.23

Variants of: B3
Assay: as above
Conditions: c terminus: a fixed tail appended

Protein stability index of substitutions, site by site:
F1: A 4.38; C 4.38; D 4.31; E 4.64; G 3.74; H 4.46; I 3.43; K 4.28; L 4.31; M 4.59; N 4.75; P 4.04; Q 4.11; R 5.08; S 4.51; T 4.28; V 4.22; W 3.7; Y 3.59
D2: A 3.4; C 3.17; E 4.27; F 2.48; G 4.03; H 2.17; I 3.62; K 3.78; L 3.18; M 3.01; N 3.06; P 3.11; Q 2.93; R 3.19; S 3.51; T 3.18; V 2.06; W 2.3; Y 3.1
A3: C 4.06; D 3.72; E 4.08; F 3.19; G 3.96; H 3.63; I 3.31; K 2.87; L 3.69; M 3.56; N 3.63; P 3.7; Q 4.04; R 3.81; S 3.77; T 3.56; V 3.59; W 2.87; Y 3.54
L4: A 4.1; C 3.94; D 4.2; E 4.41; F 4; G 4.11; H 4.48; I 3.56; K 4.39; M 3.81; N 4.51; P 3.54; Q 4.18; R 3.93; S 4.6; T 4.44; V 3.75; W 3.43; Y 3.16
D5: A 4.03; C 4; E 3.77; F 2.5; G 4.12; H 3.9; I 3.45; K 3.09; L 3.18; M 3.14; N 3.98; P 4.11; Q 3.86; R 3.5; S 3.24; T 3.7; V 3.54; W 2.98; Y 3.1
D6: A 3.54; C 4.28; E 3.43; F 2.21; G 3.69; H 3.96; I 3.51; K 2.97; L 4.68; M 3.03; N 3.91; P 3.74; Q 3.56; R 3.52; S 3.95; T 3.27; V 2.98; W 1.67; Y 2.59
Y7: A 3.4; C 4.92; D 4.22; E 4.31; F 3.24; G 4.16; H 4.43; I 4.18; K 4.44; L 3.54; M 4.29; N 4.25; P 3.97; Q 4.25; R 4.23; S 4.05; T 4.16; V 3.98; W 3.71
E8: A 3.66; C 4.43; D 3.82; F 2.57; G 3.55; H 3.63; I 2.51
